This assay addresses purified BfpD assembly ATPase (enteropathogenic Escherichia coli (EPEC)).

As usually defined, the stoichiometry N is a count of units in the complex or per binding partner.

For purified BfpD assembly ATPase (enzyme), the stoichiometry N amounted to 6.

Values taken from paper PMC3338861.
